Blank lines part the entries; values can stand above or below the binder they belong to.
Columns and labels:
[1] = target: T1, IDUA 218 signature peptide (IDUA 218-230); assay: immuno-SRM, mAb on Protein G magnetic beads, peptide capture from PBMC digest
T1 construct: Endogenous tryptic peptide from digested DBS, PBMC or buccal swab samples; An internal standard version of the same peptide (1.25 fmol) was captured alongside it; also called first IDUA signature peptide
T1 peptide: LGGPGDSFHTPPR

[2] = target: T2, IDUA 462 signature peptide (IDUA 462-474); assay: as above
T2 construct: Endogenous tryptic peptide from digested DBS, PBMC or buccal swab samples; An internal standard version of the same peptide (1.25 fmol) was captured alongside it; also called second IDUA signature peptide
T2 peptide: GVPPGPGLVYVTR

binding result [1]: binds
B1: anti-IDUA 218 monoclonal antibody (antibody, V domains shown)
VH: QVQLQQPGTELVKPGASVKLSCKASGYTFTRYWMHWVKQRPGQGLEWIGEINPSNGGTNYNEKFKNKATLNVDKSSSTAYMQLSSLTSEDSAVYYCTLAMDYWGQGTSVTVSS
VL: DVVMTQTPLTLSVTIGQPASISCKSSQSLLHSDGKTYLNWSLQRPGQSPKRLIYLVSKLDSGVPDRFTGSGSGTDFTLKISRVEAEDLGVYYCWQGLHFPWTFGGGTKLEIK
notes: Used as a monoclonal antibody coated on Protein G magnetic beads (1 ug per assay)

binding result [2]: binds
B2: anti-IDUA 462 monoclonal antibody (antibody, V domains shown)
VH: EVQLQQSGAELVKPGASVKLSCTASGFNIKDTYMHWVNQRPEQGLEWIGRIDPANGNTKYGPKFQGKATITADTSSNTAYLQLSSLTSEDTAVYYCAQTARAPFAYWGQGTLVTVSA
VL: DIVITQDEVSNPVTSGESVSISCRSSKSLLYKDGKTYLNWFLQRPGQSPQLLVYWMSTRASGVSDRFSGSGSGTDFTLKISRVKAEDVGMYYCQQVVEYPFTFGTGTKLEIK
notes: Used as a monoclonal antibody coated on Protein G magnetic beads (4 ug per assay)

Source: US20210302435A1 (SEATTLE CHILDREN S HOSPITAL D B A SEATTLE CHILDREN S …, published 2021)
